Assay results from patent US12202907B2, “Nucleic acids encoding and methods of producing proteins comprising antibody chains” (Innate Pharma, priority 2018, dated 2025).
“Also recorded” adds a separate entry of the source.

How the values were obtained:
[1] = test system: CD4 or CD8 T cells; experiment: T cell proliferation assay in the presence of added ATP; format: cell-based, human; conditions: for increase in potency of anti-CD73 antibodies: CD4 T cell proliferation
Experimental: Peripheral blood from healthy donors was obtained from EFS, and mononuclear cells were isolated on a Ficoll™ gradient. Lymphocytes were further enriched on a 52% Percoll™ gradient by collection of the cell pellets and stained with a Cell Trace dye (Thermofisher) following the TDS provided by the manufacturer. […] to 1×10^5 of stained cells were distributed in 96 round-bottom plates, incubated for 1 hour at 37° C. with anti-huCD73 antibodies (antibody 6E1 described in WO2016/131950) and/or anti-huCD39 Abs (I-394 described herein) and activated for 3 to 5 days by addition of anti-CD3/anti-CD28-coated beads (bead:cell=1:4; Life Technologies). Inhibition of T cell proliferation was achieved by addition of ATP (200 μM). T cell proliferation and ability of Abs to block immune suppressive effect of AMP were assessed by flow cytometry by quantifying the dye dilution in the proliferating T cell subset.
Percentage of proliferating T cells vs. anti-CD73 Ab concentration is plotted in graphs using GraphPad Prism™ software.

[2] = target: T1, soluble recombinant human CD39 protein (Homo sapiens, UniProt P49961); experiment: Inhibition of the enzymatic activity of soluble CD39 (Cell Titer Glo, cell-free); format: biochemical
T1 construct: made in house; host or cells: CHO cells
T1 sequence (P49961 with tags, fused parts or gaps): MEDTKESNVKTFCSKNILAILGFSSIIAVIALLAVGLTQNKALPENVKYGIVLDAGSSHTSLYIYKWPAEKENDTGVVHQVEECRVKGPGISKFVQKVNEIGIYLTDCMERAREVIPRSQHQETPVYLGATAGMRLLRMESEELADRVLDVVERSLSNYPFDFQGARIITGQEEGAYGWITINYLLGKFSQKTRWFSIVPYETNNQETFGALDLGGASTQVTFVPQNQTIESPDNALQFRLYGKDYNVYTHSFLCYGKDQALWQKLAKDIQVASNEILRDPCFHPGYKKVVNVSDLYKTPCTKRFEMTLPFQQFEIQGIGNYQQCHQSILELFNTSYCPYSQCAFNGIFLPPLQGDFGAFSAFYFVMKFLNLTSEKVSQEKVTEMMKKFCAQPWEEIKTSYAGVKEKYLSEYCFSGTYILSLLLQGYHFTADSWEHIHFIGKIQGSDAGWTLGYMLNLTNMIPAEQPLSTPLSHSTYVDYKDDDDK
Experimental: The inhibition by antibodies of the enzymatic activity of soluble CD39 protein produced was evaluated using Cell Titer GIo™ (Promega, reference G7571) that allows assessment of ATP hydrolysis through use of a reagent that generates a luminescent signal proportional to the amount of ATP present. In this way, inhibition of the soluble-CD39-meidated ATP hydrolysis can be assessed. Briefly, dose ranges of anti-CD39 antibodies from 100 μg/ml to […] were incubated with 400 ng/ml of soluble recombinant human CD39 protein having the amino acid sequence described in the Methods section (SEQ ID NO: 44), for 1 h at 37° C. 20 μM ATP was added to the plates for 30 additional minutes at 37° C. before addition of CTG (Cell Titer Glo) reagent. Emitted light was quantified using an Enspire™ luminometer after a short incubation period of 5 min in the dark. Anti-CD39 antibody efficacy was determined by comparing emitted light in presence of antibody with ATP alone (maximal light emission) and ATP together with soluble CD39 protein (minimal light emission).

[3] = target: T2, Human CD39-L3 (NTPDase3, ENTPD3) (Homo sapiens, UniProt O75355); experiment: ELISA titration on CD39-L3; format: binding
T2 sequence (O75355 1-529): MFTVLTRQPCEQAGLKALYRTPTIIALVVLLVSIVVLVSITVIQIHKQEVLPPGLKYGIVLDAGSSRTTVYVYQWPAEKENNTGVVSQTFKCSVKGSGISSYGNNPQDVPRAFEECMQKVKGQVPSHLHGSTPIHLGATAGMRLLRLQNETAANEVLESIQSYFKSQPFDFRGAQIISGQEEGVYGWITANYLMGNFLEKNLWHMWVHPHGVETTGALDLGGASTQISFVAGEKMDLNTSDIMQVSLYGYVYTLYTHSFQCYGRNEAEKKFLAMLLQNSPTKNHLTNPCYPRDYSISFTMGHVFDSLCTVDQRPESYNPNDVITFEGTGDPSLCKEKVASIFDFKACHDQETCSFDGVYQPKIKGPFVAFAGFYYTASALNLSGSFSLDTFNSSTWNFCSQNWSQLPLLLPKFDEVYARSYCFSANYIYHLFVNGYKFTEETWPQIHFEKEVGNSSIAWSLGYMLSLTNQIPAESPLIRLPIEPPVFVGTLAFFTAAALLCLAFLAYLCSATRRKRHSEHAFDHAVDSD
Experimental: Antibody I-394 was tested for binding to recombinant human CD39 isoforms (Rec-huCD39 isoforms) having amino acid sequences shown below were coated in 96-well plate in PBS 1X at 500 ng/ml or 1 μg/ml at 4° C. overnight. Wells were washed in TBS Tween® 20 (polysorbate 20), and further saturated 2H at RT in TBS Blocking buffer. Dose range concentration of primary antibody was incubated in TBS blocking buffer for 2 h at RT. Wells were washed in TBS Tween® 20 (polysorbate 20). […] Optical density was measured on Enspire™ at OD=450.

[4] = Aggregation temperature (thermal shift stability assay); format: physicochemical; conditions: human IgG1 with L234A/L235E/G237A/A330S/P331S
Experimental: Antibodies mAb1-24 and prior art anti-CD39 antibody BY40, all produced as human IgG1 isotypes with L234A/L235E/G237A/A330S/P331S substitutions were tested for stability in the following reference formulation at a concentration of approximatively 7 mg/mL: pH 6.0; histidine buffer (10 mM); sucrose (200 mM); NaCl (50 mM); Polysorbate 80 (PS80) (0.2 g/L). The stability of the formulations was monitored in two storage conditions (at +5° C.±3° C. and at +40±3° C. For each study, 3 time points were performed: T0, T15D (15 days) and T1M (1 month). A freeze thaw (F/T) and a thermal shift stability assay (TSSA) were conducted for the format comparison. To perform F/T cycles, the samples were frozen at least 2 hours at −20° C. and thawed at least 1 hour at room temperature, the F/T cycle is repeated three times and samples are tested 24 h after the last Freeze/Thaw cycle. At each time point, the following tests were performed: • Particulate Matter (MFI) • Visual Inspection (Appearance) • Impurities (SE-HPLC) • Turbidity (400 nm) • Protein Concentration (280 nm) (performed with Nanodrop, Thermo Fisher Scientific Inc.)

## I-394: anti-CD39 antibody, VH SEQ ID NO: 6, VL SEQ ID NO: 7, human IgG1 Fc with L234A/L235E/G237A/A330S/P331S
[1]; ATP 200 μM, combination with anti-CD73 antibody 6E1
  potentiation of anti-CD73 antibodies in restoring CD4 or CD8 T cell proliferation: strongly potentiation the effect of anti-CD73 antibodies in restoring CD4 or CD8 T cell proliferation
[1]; anti-CD39 at 0.01 μg/ml
  increase in potency of anti-CD73 antibodies: approximately 1 log
[1]; anti-CD39 at 0.1 μg/ml
  increase in potency of anti-CD73 antibodies: approximately 4 log
[1]; concentrations of 0.1 μg/ml and 1 μg/ml, ATP 200 μM
  enhancement of CD4 or CD8 T cell proliferation, alone without anti-CD73: remarkable enhancement of CD4 or CD8 T cell proliferation
[2]
  inhibition maximum, soluble CD39: 74.9%
[2]; FIG. 2B, comparison of BY40, I-394, I-395, I-396
  potency ranking for inhibition of soluble CD39: greatest potency
[2]; qualitative
  inhibition of the enzymatic (ATPase) activity of soluble CD39 protein: strong inhibition of the enzymatic activity of soluble CD39; also recorded: inhibits the enzymatic activity of soluble CD39 protein
[3]
  binding to CD39-L3 in ELISA: not to any of the isoforms CD39-L1, -L2, -L3 or -L4
[4]
  Aggregation temperature (TAgg): ~70 °C
